Laboratory results reported in US20070015260A1, “Synthesis of synthons for the manufacture of bioactive compounds” (DIVERSA CORPORATION, priority 2002, published 2007).
“Also recorded” adds a separate entry of the source.

Assays:
[1] = tested on: E. coli SELECT (Δace, adhC, DE3) cells; test: In vivo selection: growth of E. coli SELECT with supplementation substrates; assay type: cell-based; conditions: for toxicity of supplementation substrate to SELECT cells: together with sodium acetate
Excerpt: SELECT was transformed with the DERA expressing plasmid, pET30a WT DERA, and growth conditions were then optimized for the expression of soluble active DERA enzyme. Selection conditions were further optimized using DERA's natural substrate DRP as a supplementation substrate and FIG. 6 illustrates that viable selection conditions are achieved. In the absence of 2-carbon supplementation, neither SELECT cells transformed with a plasmid which expresses WT DERA nor those transformed with a nonexpressing plasmid (−) grow. By contrast, both grow in the presence of sodium acetate supplementation. […] Proof of principle for this selection system arises from the fact that only E. coli SELECT cells transformed with plasmid that expresses WT DERA grow when DRP is used as the supplementation substrate. Furthermore, that the endogenous genomic E. coli DERA is not expressed at a sufficiently high level to affect the use of DRP as a 2-carbon source by virtue of its metabolism to acetaldehyde and D-glyceraldehyde-3-phosphate was established. […] A novel activity-based selection system is thus established and can be used to select for a DERA variant which can catalyze the retro-aldol reaction of DR and other nonphosphorylated substrates. Work is in progress to identify novel DERA variants for this purpose.
Plasmids were transformed into electrocompetent SELECT cells and subjected to 1 h outgrowth at 37° C. in 1 mL SOC medium supplemented with 0.1% sodium acetate. The cells were then collected by centrifugation at 4° C., 3000 rpm for 10 min. The supernatant was discarded and the pellet gently resuspended M9 0.2% glucose. This was repeated twice. The cells were then diluted to OD600=0.001 in M9 0.2% glucose, 0.01 mM IPTG, 10 μg/mL kanamycin. The appropriation supplementation substrate (sodium acetate, D-2-deoxyribose-phosphate or D-2-deoxyribose) was then added at 0.1% w/w concentration. After an appropriate selection time at 37° C., typically 24-72 h, the cells were harvested by centrifugation and their amplified plasmids isolated.

[2] = Sequential asymmetric aldol reaction with azidoaldehyde acceptor; assay type: biochemical; conditions: 3-azidopropinaldehyde acceptor, two molecules of acetaldehyde as donor
[3] = DERA addition (aldol) assay; assay type: biochemical; conditions: spectrophotometric coupled-assay of substrate consumption and TLC of product formation
Description: DERA enzyme activity was assayed in the aldol synthesis direction by determining the concentration of acetaldehyde remaining by a coupled endpoint assay with yeast alcohol dehydrogenase (YADH, EC 1.1.1.1). 200 mM acetaldehyde, which had been freshly distilled under anerobic conditions, 200 mM (±)-glyceraldehyde and 0.2 mg/mL DERA in 50 mM triethanolamine, pH 7.5 buffer which had been deoxygenated with N2, were incubated under an N2 atmosphere at 22° C. At various time points, 50 μL aliquots were withdrawn and quenched into 15 μL of 60% perchloric acid. After a 5 min incubation on ice, 890 μL 1 M triethanolamine, pH 7.5 buffer and 45 μL 4 N NaOH were added to neutralize the solution. 20 μL of this solution was then assayed for remaining acetaldehyde. The amount of acetaldehyde remaining was equated to moles NADH consumed, as determined in triethanolamine pH 7.5 buffer containing 0.3 mM NADH, 20 μL the above quenched reaction aliquot and 0.05 mg/mL YADH. DR product formation was also confirmed by silica gel TLC with ethylacetate running solvent and p-anisaldehyde developing stain. Rf: glyceraldehyde=0.04 (stains brown) Rf:2-deoxyribose=0.1 (stains blue).

[4] = DERA cleavage (retroaldol) coupled assay, natural substrate DRP; assay type: biochemical; conditions: for Km / kcat: retro-aldol, pH 7.5, 25° C.; for activity / kcat/KM with the natural substrate DRP, in words: compared to WT
Description: (§1) Enzyme activity was monitored by the standard coupled assay using α-Glycerophosphate Dehydrogenase (α-GPD, EC 1.1.18), and Triosephosphate Isomerase (TPI, EC 5.3.1.1). Enzyme activity was assayed in the retro-aldol, decomposition direction with 0.01-4 mM D-2-deoxyribose-5-phosphate (DRP) or 5 to 200 mM D-2-deoxyribose in 50 mM triethanolamine hydrochloride pH 7.5 buffer using a GPD/TPI (1.6 U/mL Sigma G-1881) coupled enzyme system at 25° C. in the presence of 0.3 mM NADH by observing the rate of decrease of NADH concentration as monitored at 340 nm, ε=6220 M^−cm^−1.

[5] = DERA cleavage (retroaldol) coupled assay, unnatural substrate DR; assay type: biochemical; conditions: for ratio of specificity constants {kcat/KM (DR)}/{kcat/KM (DRP)}: DR compared to DRP, read; for activity / specificity with DR, in words: compared to WT; for Km / kcat: retro-aldol, pH 7.5, 25° C.
Description: as §1

[6] = DERA catalysis with 2-methyl-3-hydroxypropinaldehyde as acceptor; assay type: biochemical; conditions: L-2-methyl derivative as substrate

| Molecule | toxicity of supplementation substrate to SELECT cells [1] | acceptance of the azidoaldehyde as substrate [2] | growth of SELECT cells transformed with expressing plasmid ([1]; DRP as the supplementation substrate) | relative activity of the DERA variants in the aldol direction [3] | Km [4] | kcat [4] | ratio of specificity constants {kcat/KM (DR)}/{kcat/KM (DRP)} [5] | activity / specificity with DR, in words ([5]; substrate DR) | Km ([5]; substrate DR) | kcat ([5]; substrate DR) | improvement in kcat/KM compared to that of the wild type [6] | activity / kcat/KM with the natural substrate DRP, in words [4] | improvement in kcat/KM compared to WT-DERA ([5]; substrate DR) | decrease in kcat/KM ([5]; substrate DR) |
| --- | --- | --- | --- | --- | --- | --- | --- | --- | --- | --- | --- | --- | --- | --- |
| O=CC[C@@H](O)[C@H](O)CO [DR, D-2-deoxyribose] | neither of these supplementation substrates nor their metabolic products are toxic to the cells | – | – | – | – | – | – | – | – | – | – | – | – | – |
| O=CC[C@@H](O)[C@H](O)COP(=O)(O)O [DRP, D-2-deoxyribose-5-phosphate] | neither of these supplementation substrates nor their metabolic products are toxic to the cells | – | – | – | – | – | – | – | – | – | – | – | – | – |
| WT: wild-type E. coli 2-deoxyribose-5-phosphate aldolase (DERA, EC 4.1.2.4) | – | not a substrate; also recorded: inactive | grow | S238˜DS239W>WT>R207E>K172E>G205E | 0.64 ± 0.01 mM | 68 ± 1 s⁻¹ | 1.9 × 10^−5 | cannot accept the unnatural substrate DR efficiently | 57 ± 7 mM | 0.107 ± 0.005 s⁻¹ | – | – | – | – |
| S238D: DERA variant, phosphate binding pocket residue Ser238 replaced with Asp (protein, UniProt P0A6L0 1-259, looked up, variant S238D) Deoxyribose-phosphate aldolase: MTDLKASSLRALKLMDLTTLNDDDTDEKVIALCHQAKTPVGNTAAICIYPRFIPIARKTLKEQGTPEIRIATVTNFPHGNDDIDIALAETRAAIAYGADEVDVVFPYRALMAGNEQVGFDLVKACKEACAAANVLLKVIIETGELKDEALIRKASEISIKAGADFIKTSTGKVAVNATPESARIMMEVIRDMGVEKTVGFKPAGGVRTAEDAQKYLAIADELFGADWADARHYRFGADSLLASLLKALGHGDGKSASSY | – | catalyzes a novel sequential aldol reaction; also recorded: accepts 3-azidopropionaldehyde as a new substrate | – | S238˜DS239W>WT>R207E>K172E>G205E | 61 ± 11 mM | 0.58 ± 0.05 s⁻¹ | 0.13 | – | 39 ± 6 mM | 0.21 ± 0.01 s⁻¹ | 5 fold | substantially decreased | 2.5 fold | – |
| G205E: DERA variant, neutral phosphate binding pocket residue Gly205 replaced with Glu (protein, UniProt P0A6L0 1-259, looked up, variant G205E) Deoxyribose-phosphate aldolase: MTDLKASSLRALKLMDLTTLNDDDTDEKVIALCHQAKTPVGNTAAICIYPRFIPIARKTLKEQGTPEIRIATVTNFPHGNDDIDIALAETRAAIAYGADEVDVVFPYRALMAGNEQVGFDLVKACKEACAAANVLLKVIIETGELKDEALIRKASEISIKAGADFIKTSTGKVAVNATPESARIMMEVIRDMGVEKTVGFKPAGEVRTAEDAQKYLAIADELFGADWADARHYRFGASSLLASLLKALGHGDGKSASSY | – | – | – | S238˜DS239W>WT>R207E>K172E>G205E | – | – | 3.1 × 10^−3 | virtually inactive | – | – | – | virtually inactive | – | – |
| R207E: DERA variant, basic phosphate binding pocket residue Arg207 mutated to Glu (protein, UniProt P0A6L0 1-259, looked up, variant R207E) Deoxyribose-phosphate aldolase: MTDLKASSLRALKLMDLTTLNDDDTDEKVIALCHQAKTPVGNTAAICIYPRFIPIARKTLKEQGTPEIRIATVTNFPHGNDDIDIALAETRAAIAYGADEVDVVFPYRALMAGNEQVGFDLVKACKEACAAANVLLKVIIETGELKDEALIRKASEISIKAGADFIKTSTGKVAVNATPESARIMMEVIRDMGVEKTVGFKPAGGVETAEDAQKYLAIADELFGADWADARHYRFGASSLLASLLKALGHGDGKSASSY | – | – | – | S238˜DS239W>WT>R207E>K172E>G205E | – | – | 2.2 | virtually unchanged | 33 ± 3 mM | 0.064 ± 0.001 s⁻¹ | – | – | – | – |
| K172E: DERA variant, basic phosphate binding pocket residue Lys172 mutated to Glu (protein, UniProt P0A6L0 1-259, looked up, variant K172E) Deoxyribose-phosphate aldolase: MTDLKASSLRALKLMDLTTLNDDDTDEKVIALCHQAKTPVGNTAAICIYPRFIPIARKTLKEQGTPEIRIATVTNFPHGNDDIDIALAETRAAIAYGADEVDVVFPYRALMAGNEQVGFDLVKACKEACAAANVLLKVIIETGELKDEALIRKASEISIKAGADFIKTSTGEVAVNATPESARIMMEVIRDMGVEKTVGFKPAGGVRTAEDAQKYLAIADELFGADWADARHYRFGASSLLASLLKALGHGDGKSASSY | – | – | – | S238˜DS239W>WT>R207E>K172E>G205E | – | – | 0.27 | – | 63 ± 22 mM | 0.022 ± 0.02 s⁻¹ | – | – | – | 5 fold |
